Results published in article PMC6010275.

Molecular target: β-clamp of the Escherichia coli replisome (E. coli) (UniProt P0A988)
UniProt P0A988, sequence (P0A988 whole entry): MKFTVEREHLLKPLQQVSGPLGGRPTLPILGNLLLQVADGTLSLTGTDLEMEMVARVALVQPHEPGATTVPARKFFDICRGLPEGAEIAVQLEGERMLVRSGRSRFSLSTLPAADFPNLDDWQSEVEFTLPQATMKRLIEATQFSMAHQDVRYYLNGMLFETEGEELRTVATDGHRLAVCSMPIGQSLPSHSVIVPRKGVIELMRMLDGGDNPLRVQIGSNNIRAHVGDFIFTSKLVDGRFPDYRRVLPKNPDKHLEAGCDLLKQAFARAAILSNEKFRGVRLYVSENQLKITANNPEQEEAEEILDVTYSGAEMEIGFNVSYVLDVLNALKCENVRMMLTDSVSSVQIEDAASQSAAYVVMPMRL

rate of cleavage of a 10 nucleotide 5' flap by Pol I, with template-loaded β-clamp against without (denaturing gel): 2.5 fold
Substance: DNA polymerase I (from UniProt P00582 1-928) (enzyme)
